Laboratory results taken from patent publication US20120108492A1, “LIGAND-SPECIFIC NON-ANTIBODY COMPOUNDS THAT INHIBIT CR2 ACTIVATION AND METHODS OF USE THEREOF” (The Regents of the University of Colorado, priority 2008, published 2012).

How the values were obtained:
Assay type in all cases: binding
anti-CR2 SCR1-2 mAb 629 = assay: MBP-CR2 SCR1-2-629 mAb ELISA; conditions: mutant MBP-CR2 SCR1-2 relative to wild-type; for % 629 mAb Bindng: plate-bound 629 mAb
Source text: The excellent correlation observed between our cell-binding studies and the ELISA analyses provides proof-of-principle that the MBP-CR2 SCR1-2 ELISA is an effective means of characterizing CR2-ligand interactions. […] See Asokan et al. (2006) J Immunol 177:383-94; Guthridge et al. (2001) J Immunol 167:5758-66; Young et al. (2007) J Biol Chem 282:36614-36625. […] This epitope overlaps extensively with the binding surface on CR2 described above for EBV gp350, and also with the previously described binding sites for C3dg and C3d. Hannan et al. (2005) J Mol Biol 346:845-58; and Young et al. (2007) J Biol Chem 282:36614-36625.
(§1) After coating, the plates were blocked using 0.1% BSA in a PBS solution, pH 7.4 for one hour at room temperature. The plates were then washed, and incubated with either wild-type or mutant MBP-CR2 SCR1-2, at concentrations ranging from 0.03125-2.0 μg/ml in PBS for one hour at room temperature. After further washing, wild-type or mutant MBP-CR2 binding was detected using commercially available horseradish peroxidase-conjugated anti-MBP mAb (New England Biolabs) according to the manufacturer's instructions.

[1] = tested on: anti-CR2 SCR1-2 monoclonal antibody 171; assay: MBP-CR2 SCR1-2-171 mAb ELISA; conditions: mutant MBP-CR2 SCR1-2 relative to wild-type; for % 171 mAb Binding: plate-bound 171 mAb
Experimental: See Asokan et al. (2006) J Immunol 177:383-94; Guthridge et al. (2001) J Immunol 167:5758-66; Young et al. (2007) J Biol Chem 282:36614-36625. […] Hannan et al. (2005) J Mol Biol 346:845-58; and Young et al. (2007) J Biol Chem 282:36614-36625.
as §1

EBV gp350 = EBV gp350 (Epstein-Barr virus, UniProt P03200); assay: MBP-CR2 SCR1-2 mutant-EBV gp350 ELISA; design: DNA corresponding to residues 1-470 of EBV gp350/220; E. coli biotin carboxyl carrier protein (BCCP) fragment, residues 70-156; hexa-histidine (C); made in house; host or cells: human embryonic kidney 293f freestyle cells (pSecTag2/Hygro B); conditions: mutant MBP-CR2 SCR1-2
Experimental: See Martin et al. (1991) J Exp Med 174:1299-311; Young et al. (2007) J Biol Chem 282:36614-36625; Guthridge et al. (2001) Biochemistry 40:5931-41; and Sarrias et al. (2001) J Immunol 167:1490-9. […] Young et al. (2007) J Biol Chem 282:36614-36625.
as §1

EBV gp350, sequence (P03200 1-470): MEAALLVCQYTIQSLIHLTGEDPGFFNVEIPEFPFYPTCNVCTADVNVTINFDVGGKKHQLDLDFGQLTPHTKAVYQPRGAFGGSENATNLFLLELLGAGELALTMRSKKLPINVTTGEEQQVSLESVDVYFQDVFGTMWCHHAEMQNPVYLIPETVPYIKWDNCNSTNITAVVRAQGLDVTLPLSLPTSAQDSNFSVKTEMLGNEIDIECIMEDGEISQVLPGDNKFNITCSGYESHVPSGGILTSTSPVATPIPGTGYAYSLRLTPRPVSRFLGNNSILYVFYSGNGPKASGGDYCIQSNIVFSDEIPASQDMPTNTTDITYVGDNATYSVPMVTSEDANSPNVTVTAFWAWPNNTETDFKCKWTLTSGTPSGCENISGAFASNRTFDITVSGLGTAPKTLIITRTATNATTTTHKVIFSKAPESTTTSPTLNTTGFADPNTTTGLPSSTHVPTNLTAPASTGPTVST

B1: R28A: single-site mutant of recombinant MBP-CR2 SCR1-2 (protein)
chain: ISCGSPPPILNGRISYYSTPIAVGTVIAYSCSGTFRLIGEKSLLCITKDKVDGTWDKPAPKCEYFNKYSSCPEPIVPGGYKIRGSTPYRHGDSVTFACKTNFSMNGNKSVWCQANNMWGPTRLPTCVSVFPLE
modifications: left off: large carriers; small tags and cut ends
- Weighting (629 mAb) (anti-CR2 SCR1-2 mAb 629): ++++ (++++>90%)
- % 629 mAb Bindng (anti-CR2 SCR1-2 mAb 629): 103.1%
- Weighting (171 mAb) [1]: ++++ (++++>90%)
- % 171 mAb Binding [1]: 103.5%
- EBV gp350 binding relative to wild-type CR2 (EBV gp350): significantly decreased capacity

B2: Y64A: single-site mutant of recombinant MBP-CR2 SCR1-2 (protein)
chain: ISCGSPPPILNGRISYYSTPIAVGTVIRYSCSGTFRLIGEKSLLCITKDKVDGTWDKPAPKCEAFNKYSSCPEPIVPGGYKIRGSTPYRHGDSVTFACKTNFSMNGNKSVWCQANNMWGPTRLPTCVSVFPLE
modifications: left off: large carriers; small tags and cut ends
- Weighting (629 mAb) (anti-CR2 SCR1-2 mAb 629): +++ (+++89.9-70%)
- % 629 mAb Bindng (anti-CR2 SCR1-2 mAb 629): 82.0%
- Weighting (171 mAb) [1]: − (−19.9-0%)
- % 171 mAb Binding [1]: 5.8%

B3: S32A: single-site mutant of recombinant MBP-CR2 SCR1-2 (protein)
chain: ISCGSPPPILNGRISYYSTPIAVGTVIRYSCAGTFRLIGEKSLLCITKDKVDGTWDKPAPKCEYFNKYSSCPEPIVPGGYKIRGSTPYRHGDSVTFACKTNFSMNGNKSVWCQANNMWGPTRLPTCVSVFPLE
modifications: left off: large carriers; small tags and cut ends
- Weighting (629 mAb) (anti-CR2 SCR1-2 mAb 629): ++++ (++++>90%)
- % 629 mAb Bindng (anti-CR2 SCR1-2 mAb 629): 117.8%
- Weighting (171 mAb) [1]: +++ (+++89.9-70%)
- % 171 mAb Binding [1]: 77.5%

B4: Y68A: single-site mutant of recombinant MBP-CR2 SCR1-2 (protein)
chain: ISCGSPPPILNGRISYYSTPIAVGTVIRYSCSGTFRLIGEKSLLCITKDKVDGTWDKPAPKCEYFNKASSCPEPIVPGGYKIRGSTPYRHGDSVTFACKTNFSMNGNKSVWCQANNMWGPTRLPTCVSVFPLE
modifications: left off: large carriers; small tags and cut ends
- Weighting (629 mAb) (anti-CR2 SCR1-2 mAb 629): ++++ (++++>90%)
- % 629 mAb Bindng (anti-CR2 SCR1-2 mAb 629): 102.3%
- Weighting (171 mAb) [1]: ++++ (++++>90%)
- % 171 mAb Binding [1]: 92.1%

B5: K50A: single-site mutant of recombinant MBP-CR2 SCR1-2 (protein)
chain: ISCGSPPPILNGRISYYSTPIAVGTVIRYSCSGTFRLIGEKSLLCITKDAVDGTWDKPAPKCEYFNKYSSCPEPIVPGGYKIRGSTPYRHGDSVTFACKTNFSMNGNKSVWCQANNMWGPTRLPTCVSVFPLE
modifications: left off: large carriers; small tags and cut ends
- Weighting (629 mAb) (anti-CR2 SCR1-2 mAb 629): +++ (+++89.9-70%)
- % 629 mAb Bindng (anti-CR2 SCR1-2 mAb 629): 87.5%
- Weighting (171 mAb) [1]: ++++ (++++>90%)
- % 171 mAb Binding [1]: 94.4%

B6: K41A: single-site mutant of recombinant MBP-CR2 SCR1-2 (protein)
chain: ISCGSPPPILNGRISYYSTPIAVGTVIRYSCSGTFRLIGEASLLCITKDKVDGTWDKPAPKCEYFNKYSSCPEPIVPGGYKIRGSTPYRHGDSVTFACKTNFSMNGNKSVWCQANNMWGPTRLPTCVSVFPLE
modifications: left off: large carriers; small tags and cut ends
- Weighting (629 mAb) (anti-CR2 SCR1-2 mAb 629): ++++ (++++>90%)
- % 629 mAb Bindng (anti-CR2 SCR1-2 mAb 629): 97.5%
- Weighting (171 mAb) [1]: ++++ (++++>90%)
- % 171 mAb Binding [1]: 97.3%
- EBV gp350 binding relative to wild-type CR2 (EBV gp350): significantly decreased capacity

B7: T34A: single-site mutant of recombinant MBP-CR2 SCR1-2 (protein)
chain: ISCGSPPPILNGRISYYSTPIAVGTVIRYSCSGAFRLIGEKSLLCITKDKVDGTWDKPAPKCEYFNKYSSCPEPIVPGGYKIRGSTPYRHGDSVTFACKTNFSMNGNKSVWCQANNMWGPTRLPTCVSVFPLE
modifications: left off: large carriers; small tags and cut ends
- Weighting (629 mAb) (anti-CR2 SCR1-2 mAb 629): +++ (+++89.9-70%)
- % 629 mAb Bindng (anti-CR2 SCR1-2 mAb 629): 84.9%
- Weighting (171 mAb) [1]: − (−19.9-0%)
- % 171 mAb Binding [1]: 12.4%

B8: M117A: single-site mutant of recombinant MBP-CR2 SCR1-2 (protein)
chain: ISCGSPPPILNGRISYYSTPIAVGTVIRYSCSGTFRLIGEKSLLCITKDKVDGTWDKPAPKCEYFNKYSSCPEPIVPGGYKIRGSTPYRHGDSVTFACKTNFSMNGNKSVWCQANNAWGPTRLPTCVSVFPLE
modifications: left off: large carriers; small tags and cut ends
- Weighting (629 mAb) (anti-CR2 SCR1-2 mAb 629): ++++ (++++>90%)
- % 629 mAb Bindng (anti-CR2 SCR1-2 mAb 629): 113.8%
- Weighting (171 mAb) [1]: ++++ (++++>90%)
- % 171 mAb Binding [1]: 97.2%

B9: K57A: single-site mutant of recombinant MBP-CR2 SCR1-2 (protein)
chain: ISCGSPPPILNGRISYYSTPIAVGTVIRYSCSGTFRLIGEKSLLCITKDKVDGTWDAPAPKCEYFNKYSSCPEPIVPGGYKIRGSTPYRHGDSVTFACKTNFSMNGNKSVWCQANNMWGPTRLPTCVSVFPLE
modifications: left off: large carriers; small tags and cut ends
- Weighting (629 mAb) (anti-CR2 SCR1-2 mAb 629): +++ (+++89.9-70%)
- % 629 mAb Bindng (anti-CR2 SCR1-2 mAb 629): 85.5%
- Weighting (171 mAb) [1]: ++++ (++++>90%)
- % 171 mAb Binding [1]: 91.9%
- EBV gp350 binding relative to wild-type CR2 (EBV gp350): significantly decreased capacity

B10: R13A: single-site mutant of recombinant MBP-CR2 SCR1-2 (protein)
chain: ISCGSPPPILNGAISYYSTPIAVGTVIRYSCSGTFRLIGEKSLLCITKDKVDGTWDKPAPKCEYFNKYSSCPEPIVPGGYKIRGSTPYRHGDSVTFACKTNFSMNGNKSVWCQANNMWGPTRLPTCVSVFPLE
modifications: left off: large carriers; small tags and cut ends
- Weighting (629 mAb) (anti-CR2 SCR1-2 mAb 629): ++++ (++++>90%)
- % 629 mAb Bindng (anti-CR2 SCR1-2 mAb 629): 108.1%
- Weighting (171 mAb) [1]: − (−19.9-0%)
- % 171 mAb Binding [1]: 15.6%

B11: T86A: single-site mutant of recombinant MBP-CR2 SCR1-2 (protein)
chain: ISCGSPPPILNGRISYYSTPIAVGTVIRYSCSGTFRLIGEKSLLCITKDKVDGTWDKPAPKCEYFNKYSSCPEPIVPGGYKIRGSAPYRHGDSVTFACKTNFSMNGNKSVWCQANNMWGPTRLPTCVSVFPLE
modifications: left off: large carriers; small tags and cut ends
- Weighting (629 mAb) (anti-CR2 SCR1-2 mAb 629): +++ (+++89.9-70%)
- % 629 mAb Bindng (anti-CR2 SCR1-2 mAb 629): 85.6%
- Weighting (171 mAb) [1]: +++ (+++89.9-70%)
- % 171 mAb Binding [1]: 89.6%

B12: R36A: single-site mutant of recombinant MBP-CR2 SCR1-2 (protein)
chain: ISCGSPPPILNGRISYYSTPIAVGTVIRYSCSGTFALIGEKSLLCITKDKVDGTWDKPAPKCEYFNKYSSCPEPIVPGGYKIRGSTPYRHGDSVTFACKTNFSMNGNKSVWCQANNMWGPTRLPTCVSVFPLE
modifications: left off: large carriers; small tags and cut ends
- Weighting (629 mAb) (anti-CR2 SCR1-2 mAb 629): ++++ (++++>90%)
- % 629 mAb Bindng (anti-CR2 SCR1-2 mAb 629): 113.9%
- Weighting (171 mAb) [1]: − (−19.9-0%)
- % 171 mAb Binding [1]: 19.8%

B13: N11A: single-site mutant of recombinant MBP-CR2 SCR1-2 (protein)
chain: ISCGSPPPILAGRISYYSTPIAVGTVIRYSCSGTFRLIGEKSLLCITKDKVDGTWDKPAPKCEYFNKYSSCPEPIVPGGYKIRGSTPYRHGDSVTFACKTNFSMNGNKSVWCQANNMWGPTRLPTCVSVFPLE
modifications: left off: large carriers; small tags and cut ends
- Weighting (629 mAb) (anti-CR2 SCR1-2 mAb 629): +++ (+++89.9-70%)
- % 629 mAb Bindng (anti-CR2 SCR1-2 mAb 629): 87.5%
- Weighting (171 mAb) [1]: + (+39.9-20%)
- % 171 mAb Binding [1]: 24.1%
